# B1: RUCILP2: 87 amino acid irisin-like polypeptide cleaved from the Ruminococcus torques FNDC5-like protein RUMTOR_00181; recombinant, 6-His-tagged from E. coli (protein)
# chain: APVDVKVSEITETSAKASWKNAADGKEAAGYNVYVDGVKLNKELLTEASCGLTNLKAETTYFVEVTAVDAAGNESVKSEKVTFKTLK
# modifications: 6-His tag; Ruminococcus torques
# notes: 87 amino acid irisin-like polypeptide cleaved from the Ruminococcus torques FNDC5-like protein RUMTOR_00181; recombinant, 6-His-tagged from E. coli
# Key:
# [1] = system: human visceral white pre-adipocytes; assay: Thermogenesis/browning gene expression in human visceral white pre-adipocytes (q-PCR); type: cell-based; settings: human white preadipocytes, treatment from third day of differentiation, harvested after 14 days
# Protocol: (§1) FIG. 9. Exposure of recombinant RUCILP2 to human visceral white pre-adipocytes or murine inguinal white adipocytes causes up-regulation of the expression of genes involved in thermogenesis/browning. Upper panel: mRNA expression level of adipocyte differentiation marker genes including Ucp1, Pparγ1, Dio2, and Cox2 and brown adipocyte-selective genes including Cpt1b and Ebf2 on human white preadipocytes (HWP). Human white preadipocytes were cultured until 80% confluent and switched into differentiation media (with 0.3 ml/ml fetal calf serum, 8 ug/ml d-biotin, 0.5 ug/ml insulin, 400 ng/ml dexamethasone). The differentiation process to mature adipocytes was completed after 12-14 days. The treatment of RUCILP2 started from the third day of differentiation. Cells were harvested after 14 days of differentiation and the gene expressions were quantified by q-PCR. […] Statistical significance was determined by unpaired two-tailed Student's t test. *, p<0.05 vs 0 nM RUCILP2.
# (§2) FIG. 28. […] Cells were harvested after 14 days of differentiation and the indicated genes were quantified by q-PCR. […] Cells were harvested after 6 days of differentiation and thermogenesis gene were quantified by q-PCR. […] Cells were harvested after 4 days of differentiation and expression of myogenesis genes were quantified by q-PCR. […] Statistical significance was determined by unpaired two-tailed Student's t test, *, p<0.05 […]
# Caco-2 cell line = assay: Intestinal barrier gene expression in Caco-2 cells (hypoxia/reoxygenation); type: cell-based, human; settings: Caco-2, q-PCR
# Protocol: FIG. 13. […] The cells were treated with various doses of RUCILP2, and cells were collected for q-PCR quantification on indicated genes. For integrin inhibitor treatment, cells were treated with 10 uM of cRGDyK (Selleckchem, #S7844) for 10 minutes and washed with PBS before treated with RUCILP2. Data are presented as mean+/−SEM of one representative experiment done in technical triplicate. Statistical significance was determined by unpaired two-tailed Student's t-test. *, p<0.05 vs 0 nM RUCILP2.
# Commercially available Caco-2 cells (ATCC, #HTB-37) were seeded on 12-well plates under EMEM medium (Eagle's Minimum Essential Medium, ATCC, #30-2003), supplemented with 20% FBS (Fetal Bovine Serum, Fisher Scientific, #11550356) and 1% Penicillin-Streptomycin (Fisher Scientific, #11548876). Cell cultures were maintained in a humidified chamber with 5% CO2 at 37° C., and culture media were changed every 2-3 days.
# At 70% confluence, to induce the hypoxia/reoxygenation (H/R) cell culture model, Caco-2 cells were cultured in EMEM medium (glucose and FBS free) and exposed to hypoxia conditions (94% N2, 5% C02 and 1% O2) at 37° C. for 120 minutes. Next, cells were treated for 24 hours with indicated concentrations of recombinant RUCILP2 or commercial recombinant irisin (Sigma, #SRP8039-10UG and Phoenix pharmaceuticals, #067-29A) or PBS immediately at the beginning of reoxygenation. […]
# fat cells = assay: Cellular experiments with recombinant RUCILP2 summarised in Example 6 (fat and liver cells); type: cell-based
# [2] = system: murine inguinal white adipocytes; assay: Thermogenesis gene expression in murine inguinal adipocytes (q-PCR); type: cell-based, mouse; settings: murine inguinal white adipocytes from stromal vascular fraction, treated 4 days
# Protocol: as §1, §2
molecule,measurement,setting,value
B1,"expression of genes involved in thermogenesis/browning (Ucp1, Pparγ1, Dio2, Cox2, Cpt1b, Ebf2)",[1],up-regulation
same,expression of genes involved in intestinal integration,Caco-2 cell line,increases expression
same,leptin expression in fat cells,fat cells,enhances
same,expression of genes regulating lipogenesis,fat cells; adipocytes and liver cells,inhibits expression
same,expression of genes involved in thermogenesis/browning,[2],up-regulation

# From patent US20240336661A1, “PEPTIDES DERIVED FROM RUMINOCOCCUS TORQUES” (University of Copenhagen, priority 2021, published 2024)
